From patent US20150018530A1 come the findings set out here.

The target of test [1] is EGF receptor on A431 cells (UniProt P00533). The test can be described thus: Flow cytometry binding curve of the Fab on A431 cells (binding conditions 'as described previously'); y axis Median rises from about 20 to about 790.
The target is the same in test [2]. The test can be described thus: competition flow cytometry on A431 cells; scFv pre-bound, mAb108 at 7.5 nM as competitor, APC anti-mouse detection.
The target is the same in test [3]. The test can be described thus: Competition flow cytometry on A431 cells: cells incubated with the scFv at varied concentration and washed, then mAb108 at 7.5 nM, detected with APC-labelled anti-mouse antibody; y axis Median.
The target is the same in test [4]. Description: flow cytometry on A431 cells; binding conditions 'as described previously' (competition with mAb108). On the technique in general: Flow cytometry measures light scatter and fluorescence of single cells or particles in a stream.
For test [5] the target is unchanged. The test can be described thus: flow cytometry on A431 cells; concentration of mAb108 used in the competition assay.

wild type scFv-108 (periplasmic), sequence (scFv): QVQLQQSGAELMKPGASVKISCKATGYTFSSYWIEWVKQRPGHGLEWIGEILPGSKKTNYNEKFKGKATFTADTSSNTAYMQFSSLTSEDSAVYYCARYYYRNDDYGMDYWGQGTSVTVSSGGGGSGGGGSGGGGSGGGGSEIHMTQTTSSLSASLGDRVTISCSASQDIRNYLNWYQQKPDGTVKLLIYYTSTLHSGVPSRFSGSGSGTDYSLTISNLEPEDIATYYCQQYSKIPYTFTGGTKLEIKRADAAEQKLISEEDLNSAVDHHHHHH

Substance “Fab-108 Thr204 pAF (from UniProt P01834 1-107)” returned an EC50 in test [1] of 6.2 nM.

The substance wild type scFv-108 (periplasmic) yielded an IC50 in test [2] of 8.1 nM.

scFv-108 Ser136pAF-5K PEG registered an IC50 in test [3] of 51 nM. In test [2], this substance came in with an IC50 relative to the wild type scFv of 6.3 x.

The substance scFv-108 Leu156pAF returned an IC50 relative to the wild type scFv in test [2] of 1.8 x.

In the case of scFv-108 His144pAF, the IC50 relative to the wild type scFv in test [2] came out at 2.6 x.

Regarding “wild type Fab-108 (from UniProt P01834 1-107)”, in test [4], the EC50 turned out to be 3 nM.

scFv-108 Ser193pAF came in with an IC50 relative to the wild type scFv in test [2] of 1.8 x.

As to scFv-108 Ser136pAF, in test [3], the IC50 was found to be 13.1 nM. In test [2], the IC50 relative to the wild type scFv was determined as 1.6 x.

In test [2], scFv-108 Ser131pAF gave an IC50 relative to the wild type scFv of 1.3 x.

Take “EGFR-specific monoclonal antibody mAb108 (ATCC #HB 9764)”: in test [5], the EC80 was found to be 7.5 nM.

Broadly, the EC50 is the concentration giving half of the maximal effect. What is called IC50 is the midpoint of a concentration-inhibition curve. Read a high IC50 as weaker potency in that assay. By EC80 is commonly meant the concentration needed for an effect of 80%. A higher EC80 goes with weaker potency.
